# Laboratory results reported in the DeepSol protein solubility set.
# Experiment: soluble on expression in E. coli; label from the status in PepcDB or PDB records
row,Sequence,soluble on expression in E. coli
1,MAQVLSLENVTLAVEKENSKQAIVKHVSFFINEGEIVALVGESGSGKSVTAQSIIGLNQESIQFDDGNISFESKDLTNLQESEWNQIRGKDISFIFQDPLSSLNPTMKVGRQITEVILQHEKKSKKEAKEIAINLLNDLGIHEAEKRFEQYPHQLSGGMRQRICLAIAFACHPKLVIADEPTTALDVTIQKQIMGLLKERKEKQNTSILLITHDLALVREVADRVVVMYGGRIVEKGTIQEVIGSPKHPYTKSLLQAIPNMDDAEKVLRAIEGTTPSIETLNSFGCPFVNRCPVAIQECIHRFPERTTYSAEHSSHCWQHVLEHDRAKSKEKVNVS,not soluble
2,MSLGRKQQYGTLASIAAKLGISRTTVSNAYNRPEQLSAELRQRILDTAEDMGYLGPDPVARSLRTRRAGAIGVLLTEDLTYAFEDMASVDFLAGVAQAAGDTQLTLIPASPASSVDHVSAQQLVNNAAVDGVVIYSVAKGDPHIDAIRARGLPAVIADQPAREEGMPFIAPNNRKAIAPAAQALIDAGHRKIGILSIRLDRANNDGEVTRERLENAQYQVQRDRVRGAMEVFIEAGIDPGTVPIMECWINNRQHNFEVAKELLETHPDLTAVLCTVDALAFGVLEYLKSVGKSAPADLSLTGFDGTHMALARDLTTVIQPNKLKGFKAGETLLKMIDKEYVEPEVELETSFHPGSTVAEGHHHHHH,soluble
3,MAVSLSKGGNVSLSKEAPGLTGIVVGLGWDPRATDGQAFDLDGSVFLLDAGGKVRGDSDFIFYNNKTSSDGSVEHTGDNTTGAGEGDDETVKIDLSKVPADVDKIAVCVTIHEAETRNQNFGQVSKAYIRVMNQTGGAEIARYDLSEDASTDTAMIFGEVYRHGSDWKFKAVGQGYAGGLAPLARNYGVNV,soluble
4,MLFTISENVKEAAQYFVEYKIQSVSDLKEFARVMKEYERKGDSFIHELVVQLNKTFITPIEREDIHQLAMKMDDVLDGFEQCSARFEMFSFTEIDEHMAKFFDYIYQSTIEIVHALELLANKKLLDMRQHAIKIKDYETKCDEILRASIKNLFVTQKDPIKIIQYKELYEMLEEIADSCEDVANTLETIIMRNA,not soluble
5,MGSDKIHHHHHHMNRVVVGLQWGDEGKGKVVTYLSRYHDIVARFSGGANAGHTVNYGDFKVIHHLLPSADFTKNRGIAIGSGVLLDPQVLTEELRELKEKFPDYSGEIFISESAHVVLPVHKEMDRIIDEVLKIGTTKRGIGPACADRVMRVNVRVAELGNEEKLRYFLEKNLSLKKIYGVDFDAEKMMGDLSTFYETIKDFVVSPVQLKRILEEKSVLFEGTQGVLLDLDVGTYPYVTSMNCSSSGVSAGMGFPVEVDEVLGVFKAYTTRVGEGPFPTELTGEEGEKLRKAGHEYGSTTGRPRRCGWLDLPLLRYAIEISGVDSLVMTKADVLNGFEKIKVCVRYSDGRDLVSLRDLEKKEPVYEVFDGWKSLEDKNFERFVDFIERETGRPVRYISTGEKLEDIVEV,not soluble
6,MTCLSRDWATAQRLVEWALASTRCECFNVDSNFMAGLCLVENPTKQHYSFEVRKQVVDRFNAGQSKMDLAREFGLSSDQLVSSWVRAWRAGGDEALRPKPKGRPKGSASSKPLTEEDRLRREVEKLRAENAYLKKLRDLRNQRRSLEHHHHHH,soluble
7,MTTAVTQAIIDGFFDASNGDPFATLGMHETEQGIEIRTLLPDANRMVVIERESGKEITELDCVDERGFFVGVIPNCRQFFAYQLQVFWGNEAQIIEDPYRFHPMID,not soluble
8,GHMGQSPDAPIADTPGEQQEINLYSSRHYNTDNELYAKFTAETGIKVNLIEGKADELLERIKSEGANSPADVLLTVDLARLWRAEEDGIFQPVQSEILETNVPEYLRSPDGMWFGFTKRARVIMYNKGKVKPEELSTYEELADPKWKGRVIIRSSSNEYNQSLVASLVVADGEESTLAWAKGFVSNFAREPQGNDTAQIEAVSSGEADLTLANTYYMGRLLESEDPAQKAIAENVGVFFPNQEGRGTHVNVSGVGVVKTAPNREGAVKFIEFLVSEPAQAFLAQNNYEYPVLAGVPLNKSVASFGEFKSDTTSLDKLGPALAPATKIMNEAGWK,soluble
9,MAEHPIQGLMETAMESIKEMVDVNTIVGDAVQAPDGTVIIPISKVTFGFAAGGGEFASCCSVDEKGEDSSDDSSKPEIKFPFAGGSGAGVSINPVAFMVVGQGQIKLLPVNINSSLEKILDLIPEIIEKTKDSVKKNLKVKKEIKPGNGESCAKSSKEDENE,not soluble
10,MSLFTGYGNCYRLDALELAAEHGHTMQHWTFKTIEHFRSILANPEFPCLFGRKAVNGETCHILFARAEQLADDIAQGLANYVRTVAPIAPKQRIGSPLVVFLETAAGSSLAEQQALAWKVLRGVHARDPHPWPQGIPTDPDDTGWSFCYAGMPLFINMNFPGHQQMKSRNLGQHITFVINPRENFDEVANANTESGKRIRERIRERVHHYNDGVVPDTLGFFGDTDNYEWKQYQLQEAGSLNPSRCPFHAHAAHQPTPDILIENEGHHHHHH,not soluble
11,MKTLNLLAPVSQLLKPLRRQSSSRVNALLINVPRVQLSKGKNKYLLMMIHMHGLTRFGRTIVRGSASKDHEEIFEEIQKEMDKIGICAKCLGGGFISNKEDKKVMKIYGCCKTFGEAPHGRTKDILLSWTKFQHYNIILPKKNLNAYQLEHHHHHH,not soluble
12,MSLSPPKPSALAHVPGDEGWPIIGRTLAVLADPKGEVEKMARTYGPVYRSRVLGETSITLLGPEANELVLFDNTKLFSSTHGWGPILGRLFPRGLMMLDFDEHRLHRRTLSVAFKAGPMQSYLAELNAGIAHRVAEWRARPGEMLCYPAMKQLTLDLAATSFLGTAIGAETEEVNRAFIDMVAASVAPIRKPWPGTAMARGVKGRQRIVAYFAEQIPIRRAKGGDDLFSQLCRATHDDGALLSNQAIIDHMSFLMMAAHDTLTSSLTSFVAALAAHPEWQQKLREEIAGLGLKPGEPISFEQLDALPLTEMAFKEAMRLRPPVPSLPRRATRAFSFKGYTIPAGTMVAVNPLFTHHMPEIWPNPDQFDPLRFTDEASRGRHRFAWIPYGGGAHMCLGLNFAYMQAKCFAVHLLQHLDLSLPPNYQASWQMWPIPKPKDGLRVNVAPLNEGHHHHHH,soluble
13,SADDKDVLRDVWFGRIPACFTLSPDETTEREAEPYYLLLPRVSYLTLVTDKVKKHFLKVMKAEDVEEMWFEHEGTPLKWHYPIGVLFDLHASNSALPWNVTVHFKNFPEQDLLHCSTNSVIEAHFMSCIKEADALKHKGQVINDMQKKDHKQLWMGLQNDKFDQFWAMNRKLMEYPTEEGGFRYIPFRIYQTMSDRPFIQTLFRPVSSEGQALTLGDLLKELFPAAIEDEPKKFQVMIHGIEPLLETPIQWLSEHLSHPDNFLHISIIPAPSD,soluble
14,MSLSIPDRRAKLDRAHGVLSIRRQCRLLGLSRSSVYRTPLPANDDDLALMRRIDELFTARPFLGSRRMAWLISEDGVRINRKRVQRLMRKMGIEALGPKPRTSKPAPGHRIYPYLLRAMTIDRPNQVWATDITYIPMGRGFLYLVAVIDWASRAVLSWRLSNTMDVSFCVDALEEALSRFGKPQIFNTDQGSQFTSAAFTSVLEAAGIQISMDGRGRWMDNVFIERLWRSLKHEDVYLKFNEGHHHHHH,not soluble
15,AHHHHHHGSAGIEVQILEKKEDSIKFVLKGVHVSFANALRRTILGEVPTFAVDEVEFYENDSALFDEIIAHRLAMIPLTTPVDRFELDALELDDYTVTLSLEAEGPGIVYSGDLKSDDPDVKPVNPNIPIVKLAEGQRLVFNAYAKLGRGKDHAKWQPGFVYYKYYTIVHISKSIPEWKELKKLAKKRGLPVEETEEEVLVTTIKPFYIPKDFEEYEGKEIWEEIVPNTYIFTVETNGELPVEEIVSIALKILMRKADRFISELQKLTS,soluble
16,MKELRRFHLDHDFKIRDWVVVLNEIVVSRWDEVRREKVYRIGFQEFDCSDGWDIEREDGTIATVVFVKSSFDFFVWSK,not soluble
17,MLKDEYGRVVTNLRIAVTKKCNLRCFYCHKEGESNPGEEISAERIVEIARAFKELGVRKLKITGGEPLLRKDLPDIILNLPEFEEISMTTNGILLEKYAEELRECGLSRVNVSLDTLDAEKYRWITGGGEVQKVVNGIEKACEVGLTPVKINMLVLGGVNDNEVDELLEFTNSFNRGNTKAILQVIELVPFPGFEKYFFDISTIEEKYARMATQRRVRAMHRRTQYFTPKGVIEFVKPMDNTAFCMHCNRMRVTSDGKLKPCLLRNETITIDGKHGEELARAIIETVRKREPYFKGLEHHHHHH,soluble
18,GIDAAEYVLYGGKGGVGKTTCAAATALASARDDTATLVVSTDPAHSLSDTLDADIPATPTRIREDIPLYAAEIDPEAAVGEGPLGVEEDALGGVGELLGGDGMFGGGAGGAAGAGQAEDPIGGEEGLLGGSMPGADEAAALRLLLDYVDDDRFDRVVIDTAPTGHTLRLLELPETMDSMVGKILQLRERFSGMMDNLTGMFGDDQDVDAEAGIEDLQELSDRIEHLRGILQDPQRTDFRIVMVPEELSVVESERLLAQLGEFNIPVSTVVVNRVMQDPSEVLGEDVDIAGPNHADCEFCARRWQVQQDALARSQDMFRGHDVRRVPLFAEEVRGERLLSVVAACLD,not soluble
19,MRGGVESTSTACATGLHCIGNSFRSIRYGDSRRALAGAVECALNPIALAGFDRMRALARGDQPNISRPFDKKRAGFVMSEGVGLVFMERLEDAQARGAQILAEVVGYGISSDCYHISTPDPSAIGAVLSMNRAIGNAHLEPKDIGYVNAHATSTPNGDSVEAEAVRQVFPEQNIAVSSVKGHIGHLLGAAGSVEAIATIFAMNDDVLPANRNLEETDEGNGLNLLRENQKWSDVSGNKSRISICNSFGFGATNASLILKQF,not soluble
20,MITIITQDQLKTSPSVREDGRAFDELRPLKIEAGILERADGSSYLEFGGNKILVAVYGPREAQIRKLQRPDRAVIRCRYNMAPFSVEERKRPGPDRRSVEISKITAEALRPALILEKFPRSVIDVFIEVLEAEGGTRCAGITAASVALADAGIPMRDMVVACAAGKVGDQVVLDLSEEEDKEGQADVPVAILPRTREITLLQSDGNLTPEEFERALDLAVEGCLRIHEVQKEALRKRYGE,soluble
21,NLRSIIESPSFKNAESKLTVAMGYRINNEPLLMDIAKTPHALIAGATGSGKSVCINSILMSLLYKNHPEELRLLLIDPKMVELAPYNGLPHLVAPVITDVKAATQSLKWAVEEMERRYKLFAHYHVRNITAFNKKAPYDERMPKIVIVIDELADLMMMAPQEVEQSIARIAQKARACGIHMLVATQRPSV,not soluble
22,MGSDKIHHHHHHMKLISVKRIWEQGAHNAFTDLIRFQGALFCVFREGTAHVSPDGALRILRSADLGDTWQSVALIRSDEADLRDGKLIEYQGELLLLGGGTLHDKSGLQSHLWRSLDGLVWSDALKIGDKGYWLWRLTEYQNALYGVGYRAGPDGDTRLYKSDDGVQFETWLMVFNNQGYVNESAIVFDQDNGFCLLRRDPVWGPEYVGLLGCSQAPFIDWQWQELDKRIGGPVMLMYQSRLLAVVRLYDEQVRTALVEIHPDTGVVQELLTLPSKGDTSYAGVVIDGNELWVSYYSSHEIANAQLDAQNVQNESSISTQAKTMIYFAKIQLVGEF,not soluble
23,MSLTSPKRNIVGFTIVNDKHEFAQRLINAFKAEAKANKYEALVATSQNSRISEREQILEFVHLKVDAIFITTLDDVYIGSAIEEAKKAGIPVFAIDRMIRSDAVVSSITSNNQMIGEQLASYIKNELIKQTGRSTGRIVEITGTANVYTTNERHRGFLKGIENEPTLSIVDSVSGNYDPVTSERVMRQVIDSGIPFDAVYCHNDDIAMGVLEALKKAKISGKIVVGIDGNRAILEAVDMKSMDATVVQSAEEMMKVAFSALKLHTKNKKIPDRFYTYSYLYDGSREGHHHHHH,soluble
24,MGHHHHHHSHMADQKKVSEAAKEREIKISSSDNEIFLVPRNVIRLSNTINTLLMDLGLDDEEGTNAEPIPVQNVTASILKKVISWCNHHHSDPISTEDSDNREKRTDDIGSWDVEFLKVDQGTLFELILAANYLDIKGLLDVTCKTVANMIKGKSPEEIRRTFNIKNDFTPEEEEQIRKENAWCED,soluble
